Results on 2 molecules are retold here after publication PMC6152381, “The C5 Variant of the Butyrylcholinesterase Tetramer Includes a Noncovalently Bound 60 kDa Lamellipodin Fragment” (Molecules : A Journal of Synthetic Chemistry and Natural …, 2017).

Series [1] has as its target mouse anti-human BChE monoclonal antibody B2 18-5 (mouse). The series is described as follows: capture on immobilised antibody, activity assay of the unbound supernatant; hupresin-purified BChE (C4 and C5) in 0.02 M procaine, 0.02 M TrisCl pH 7.5 rotated with 0.04 mL B2 18-5 Sepharose beads at room temperature for 4 h.
Series [2] deals with the molecule itself. Put plainly: native gel or EMSA; pure human BChE from Cohn Fraction IV-4 on a 4-30% nondenaturing polyacrylamide gradient gel, 4 °C, stained for BChE activity. A general note: A gel shift assay detects complexes by their altered migration in electrophoresis.

mouse anti-human BChE monoclonal antibody B2 18-5 (mouse), sequence (heavy, as listed by the source, chain 1 of 2): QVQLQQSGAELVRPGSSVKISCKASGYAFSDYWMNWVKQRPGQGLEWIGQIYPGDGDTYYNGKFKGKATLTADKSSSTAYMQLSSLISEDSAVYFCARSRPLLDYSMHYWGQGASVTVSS
mouse anti-human BChE monoclonal antibody B2 18-5 (mouse), sequence (light, as listed by the source, chain 2 of 2): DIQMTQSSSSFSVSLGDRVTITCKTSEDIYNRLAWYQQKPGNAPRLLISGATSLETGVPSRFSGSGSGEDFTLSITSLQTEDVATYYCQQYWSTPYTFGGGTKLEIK

With “human butyrylcholinesterase (BChE) (from UniProt P06276 29-602) (enzyme)”, the percent bound in series [1] was found to be 97%.

B1: human butyrylcholinesterase (BChE) (enzyme, human (endogenous in plasma), UniProt P06276 29-602, looked up)
chain: EDDIIIATKNGKVRGMNLTVFGGTVTAFLGIPYAQPPLGRLRFKKPQSLTKWSDIWNATKYANSCCQNIDQSFPGFHGSEMWNPNTDLSEDCLYLNVWIPAPKPKNATVLIWIYGGGFQTGTSSLHVYDGKFLARVERVIVVSMNYRVGALGFLALPGNPEAPGNMGLFDQQLALQWVQKNIAAFGGNPKSVTLFGESAGAASVSLHLLSPGSHSLFTRAILQSGSFNAPWAVTSLYEARNRTLNLAKLTGCSRENETEIIKCLRNKDPQEILLNEAFVVPYGTPLSVNFGPTVDGDFLTDMPDILLELGQFKKTQILVGVNKDEGTAFLVYGAPGFSKDNNSIITRKEFQEGLKIFFPGVSEFGKESILFHYTDWVDDQRPENYREALGDVVGDYNFICPALEFTKKFSEWGNNAFFYYFEHRSSKLPWPEWMGVMHGYEIEFVFGLPLERRDNYTKAEEILSRSIVKRWANFAKYGNPNETQNNSTSWPVFKSTEQKYLTLNTESTRIMTKLRAQQCRFWTSFFPKVLEMTGNIDEAEWEWKAGFHRWNNYMMDWKNQFNDYTSKKESCVGL
modifications: 9 N-linked glycans
notes: each subunit has 574 amino acids; forty residues at the C-terminus are the tetramerization domain; also called C4; BChE tetramer; source: also purified from Cohn Fraction IV-4 (Q-ceramic ion exchange, hupresin)
For the molecule B1, in series [2], the binding result is listed as “binds”.
